# From patent publication US20250129166A1 (Five Prime, published 2025)
# Residue numbers refer to the chain shown, from its start.
# B1: P1-068767_D52N_E100fF (antibody, human IgG1, kappa, V domains shown)
# VH: EVQLVESGGGLVQPGKSLRLSCAASGFTLEDYAMHWVRQAPGKGLEWVSGINWNSENIGYADSVKGRFTISRDNAKNSLYLQMNSLRTEDTALYYCAKVPGYSGGWIDAFDDWGQGTMVTVSS
# VL: not shown
# notes: also called P1-070928
# B2: P1-068767_E30D (antibody, human IgG1, kappa, V domains shown)
# VH: B1 VH with E30D, N52D, F110E
# VL: not shown
# notes: also called P1-070904
# B3: P1-068767_E30D_D52N (antibody, human IgG1, kappa, V domains shown)
# VH: B1 VH with E30D, F110E
# VL: not shown
# notes: also called P1-070914
# B4: P1-068767_E30D_E55A (antibody, human IgG1, kappa, V domains shown)
# VH: B1 VH with E30D, N52D, E56A, F110E
# VL: not shown
# notes: also called P1-070922
# B5: P1-068767_E55A_E100fF (antibody, human IgG1, kappa, V domains shown)
# VH: B1 VH with N52D, E56A
# VL: not shown
# notes: also called P1-070918
# B6: P1-072002 (P1-061029_F100fE) (antibody, human IgG1, kappa, V domains shown)
# VH: B1 VH with E30D, E56A, F110E, D112V
# VL: not shown
# notes: also called P1-72002
# B7: P1-072006 (P1-061029_Y32E) (antibody, human IgG1, kappa, V domains shown)
# VH: B1 VH with E30D, Y32E, E56A, D112V
# VL: not shown
# notes: also called P1-72006
# B8: P1-071757 (P1-061029_HC_K16R_T84A, FW revertant) (antibody, V domains shown)
# VH: B1 VH with K16R, E30D, E56A, T88A, D112V
# VL: not shown
# notes: VH/VL only
# B9: P1-071759 (P1-061029_HC_K16R, FW revertant) (antibody, V domains shown)
# VH: B1 VH with K16R, E30D, E56A, D112V
# VL: not shown
# notes: VH/VL only
# B10: P1-071761 (P1-061029_HC_T84A, FW revertant) (antibody, V domains shown)
# VH: B1 VH with E30D, E56A, T88A, D112V
# VL: not shown
# notes: VH/VL only
# B11: P1-070868 (P1-068761_E55A) IgG1.3 (antibody, V domains shown)
# VH: B1 VH with Y32E, E56A, N57E, G104H, F110E, D112V
# VL: not shown
# notes: IgG1.3
# B12: P1-068761_E30D (antibody, human IgG1, kappa, V domains shown)
# VH: B1 VH with E30D, Y32E, N57E, G104H, F110E, D112V
# VL: not shown
# notes: also called P1-070864
# B13: P1-068761_E30D_E32Y (antibody, human IgG1, kappa, V domains shown)
# VH: B1 VH with E30D, N57E, G104H, F110E, D112V
# VL: not shown
# notes: also called P1-070876
# B14: P1-068761_E30D_E100fF (antibody, human IgG1, kappa, V domains shown)
# VH: B1 VH with E30D, Y32E, N57E, G104H, D112V
# VL: not shown
# notes: also called P1-070896
# B15: P1-068761_E32Y (antibody, human IgG1, kappa, V domains shown)
# VH: B1 VH with N57E, G104H, F110E, D112V
# VL: not shown
# notes: also called P1-070866
# B16: P1-068761_E32Y_E55A (antibody, human IgG1, kappa, V domains shown)
# VH: B1 VH with E56A, N57E, G104H, F110E, D112V
# VL: not shown
# notes: also called P1-070882
# B17: P1-068761_E32Y_E56N (antibody, human IgG1, kappa, V domains shown)
# VH: B1 VH with G104H, F110E, D112V
# VL: not shown
# notes: also called P1-070884
# B18: P1-068761_E32Y_E100fF (antibody, human IgG1, kappa, V domains shown)
# VH: B1 VH with N57E, G104H, D112V
# VL: not shown
# notes: also called P1-070888
# B19: P1-068761_E32Y_H100G (antibody, human IgG1, kappa, V domains shown)
# VH: B1 VH with N57E, F110E, D112V
# VL: not shown
# notes: also called P1-070886
# B20: P1-068761_E55A_E56N (antibody, human IgG1, kappa, V domains shown)
# VH: B1 VH with Y32E, E56A, G104H, F110E, D112V
# VL: not shown
# notes: also called P1-070878
# B21: P1-068761_E55A_E100fF (antibody, human IgG1, kappa, V domains shown)
# VH: B1 VH with Y32E, E56A, N57E, G104H, D112V
# VL: not shown
# notes: also called P1-070898
# B22: P1-068761_E56N_E100fF (antibody, human IgG1, kappa, V domains shown)
# VH: B1 VH with Y32E, G104H, D112V
# VL: not shown
# notes: also called P1-070902
# B23: P1-068761_E100fF (antibody, human IgG1, kappa, V domains shown)
# VH: B1 VH with Y32E, N57E, G104H, D112V
# VL: not shown
# notes: also called P1-070874
# B24: P1-068761_H100G (antibody, human IgG1, kappa, V domains shown)
# VH: B1 VH with Y32E, N57E, F110E, D112V
# VL: not shown
# notes: also called P1-070872
# B25: P1-068761_H100G_E100fF (antibody, human IgG1, kappa, V domains shown)
# VH: B1 VH with Y32E, N57E, D112V
# VL: not shown
# notes: also called P1-070880
# B26: P1-068761_E30D_E55A (antibody, human IgG1, kappa, V domains shown)
# VH: B1 VH with E30D, Y32E, E56A, N57E, G104H, F110E, D112V
# VL: not shown
# notes: also called P1-070890
# B27: P1-068761_E30D_E56N (antibody, human IgG1, kappa, V domains shown)
# VH: B1 VH with E30D, Y32E, G104H, F110E, D112V
# VL: not shown
# notes: also called P1-070892
# B28: P1-068761_E30D_H100G (antibody, human IgG1, kappa, V domains shown)
# VH: B1 VH with E30D, Y32E, N57E, F110E, D112V
# VL: not shown
# notes: also called P1-070894
# B29: P1-068761_E56N (antibody, human IgG1, kappa, V domains shown)
# VH: B1 VH with Y32E, G104H, F110E, D112V
# VL: not shown
# notes: also called P1-070870
# B30: P1-068761_E56N_H100G (antibody, human IgG1, kappa, V domains shown)
# VH: B1 VH with Y32E, F110E, D112V
# VL: not shown
# notes: also called P1-070900
# Target: T1, monovalent hVISTA-ECD (amino acids 32-193 of SEQ ID NO: 1 with a 7xHis tail) (human, UniProt Q9H7M9 33-193)
# T1 construct: also called huVISTA-His; human VISTA-ECD
# Test: SPR, mAb captured on Protein A, hVISTA-ECD analyte, 37 C, pH 6.0
# Description: (§1) Binding kinetics were measured using a Biacore® T100 instrument (GE Healthcare). Protein A (ThermoFisher Scientific catalog #21181) was diluted to 20 μg/ml in 10 mM sodium acetate pH 4.5 and immobilized onto flow cells of a CM5 biosensor following the manufacturer's amine coupling protocol (GE Healthcare), targeting 2,000 RU immobilization density of Protein A per flow cell. The assay was conducted at 37° C. using PBST (137 mM sodium chloride, 2.7 mM potassium chloride, 10 mM phosphate buffer, 0.05% Tween 20) running buffer at pH 7.4, 6.7 and 6.0. Antibodies were diluted to 25 nM in PBST pH 7.4, and were captured across active biosensor flow cells at 5 ul/min for 40 seconds. A concentration series of 100-10 nM monovalent hVISTA-ECD (SEQ ID NO: 325) was prepared in pH 7.4, 6.7 and 6.0 running buffers, and was injected over the captured antibodies at 40 ul/min to measure association and dissociation. Two 15 second injections of 10 mM glycine pH 1.5 were used to regenerate the Protein A capture surface between assay cycles. Rate constants ka (kon) and kd (koff) were derived from reference flow cell and 0 nM blank-subtracted sensorgrams, and were fit to a 1:1 binding model in Biacore® T200 Evaluation Software v.2.0.
# (§2) The affinity constant, KD was calculated as the ratio of rate constants koff/kₒₙ for each VISTA antibody. The % Rmax was calculated to compare how pH affects an antibody's binding capacity for VISTA, and represents the measured maximal VISTA binding response relative to the expected maximal VISTA binding response. The % Rmax is defined as the ratio of the reference-subtracted ‘binding’ report point response at the end of the 100 nM VISTA injection for each antibody (Rmax) relative to the expected VISTA binding response (Rexp). Rexp is calculated as Rexp=[(VISTA-ECD molecular weight/mAb molecular weight)×(mAb ‘capture’ report point response (RUs)]×2 binding sites per mAb.
# T1 sequence (Q9H7M9 other isoform, or with tags, fused parts or gaps limits assumed): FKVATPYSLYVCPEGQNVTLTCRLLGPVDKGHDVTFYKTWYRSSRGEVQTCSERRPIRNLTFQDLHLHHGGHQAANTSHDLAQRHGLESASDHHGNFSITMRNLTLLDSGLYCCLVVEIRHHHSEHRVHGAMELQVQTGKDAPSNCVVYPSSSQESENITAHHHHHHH
row,koff,Binder
1,0.066 s⁻¹,B1
2,0.0032 s⁻¹,B2
3,0.0023 s⁻¹,B3
4,0.0035 s⁻¹,B4
5,0.013 s⁻¹,B5

# Target: T1, monovalent hVISTA-ECD (amino acids …)
# Test: SPR, mAb on Protein A, 37C, pH 7.4
# Description: (§3) Binding of several preparations of each of the '029 progeny clones and of the parent '029 antibodies, formatted as IgG1.3 antibodies, to human VISTA at pH 6.0 and 7.4 was measured by Surface plasmon resonance (SPR). SPR analysis was performed to measure koff and KD binding affinity measurements for VISTA Abs at acidic and neutral pHs using a Biacore® T100 instrument (GE Healthcare). Protein A (ThermoFisher Scientific catalog #21181) was diluted to 20 μg/ml in 10 mM sodium acetate pH 4.5 and immobilized onto flow cells of a CM5 biosensor following the manufacturer's amine coupling protocol (GE Healthcare), targeting 2,000 RU immobilization density of Protein A per flow cell. SPR experiments were conducted at 37° C. using PBST (137 mM sodium chloride, 2.7 mM potassium chloride, 10 mM phosphate buffer, 0.05% Tween® 20) running buffer at pH 7.4 and 6.0. Antibodies were diluted to 25 nM in PBST pH 7.4, and were captured across active biosensor flow cells at 5 ul/min for 60 seconds. A concentration series of 50-5 nM monovalent hVISTA-ECD (SEQ ID NO: 325) was prepared in pH 7.4 and 6.0 running buffers, and was injected over the captured antibodies at 40 ul/min to measure association and dissociation. Two 15 second injections of 10 mM glycine pH 1.5 were used to regenerate the Protein A capture surface between assay cycles. Rate constants ka (kₒₙ) and kd (koff) were derived from reference flow cell and 0 nM blank-subtracted sensorgrams, and were fit to a 1:1 binding model in Biacore® T200 Evaluation Software v.2.0. The affinity constant, KD was calculated as the ratio of rate constants koff/kₒₙ for each VISTA antibody.
Kd,koff,kon,Binder
190 nM,0.0085 s⁻¹,44000 M⁻¹ s⁻¹,B6
540 nM,0.0063 s⁻¹,12000 M⁻¹ s⁻¹,B7
45 nM,0.0059 s⁻¹,130000 M⁻¹ s⁻¹,B8
46 nM,0.006 s⁻¹,130000 M⁻¹ s⁻¹,B9
40 nM,0.006 s⁻¹,150000 M⁻¹ s⁻¹,B10

# Target: T1, monovalent hVISTA-ECD (amino acids …)
# Test: SPR, mAb on Protein A, 37C, pH 6.0; pH 6.0
# Description: as §3
Kd,koff,kon,Binder
7 nM,0.0018 s⁻¹,260000 M⁻¹ s⁻¹,B11

# Target: T1, monovalent hVISTA-ECD (amino acids …)
# Test: SPR, mAb on Protein A, 37C, pH 6.0
# Description: as §3
Kd,koff,kon,Binder
2.5 nM,0.0016 s⁻¹,650000 M⁻¹ s⁻¹,B6
3.5 nM,0.0012 s⁻¹,340000 M⁻¹ s⁻¹,B7
7.3 nM,0.0059 s⁻¹,810000 M⁻¹ s⁻¹,B8
7.4 nM,0.0059 s⁻¹,800000 M⁻¹ s⁻¹,B9
6.9 nM,0.006 s⁻¹,870000 M⁻¹ s⁻¹,B10

# Target: T1, monovalent hVISTA-ECD (amino acids …)
# Test: SPR, mAb captured on Protein A, hVISTA-ECD analyte, 37 C, pH 6.7
# Description: as §1, §2
row,koff,Binder
1,0.018 s⁻¹,B12
2,0.00099 s⁻¹,B13
3,0.00057 s⁻¹,B14
4,0.00064 s⁻¹,B15
5,0.0006 s⁻¹,B16
6,0.00083 s⁻¹,B17
7,0.00095 s⁻¹,B18
8,0.0013 s⁻¹,B19
9,0.029 s⁻¹,B20
10,0.00028 s⁻¹,B21
11,0.00061 s⁻¹,B22
12,0.00022 s⁻¹,B23
13,0.014 s⁻¹,B24
14,0.0004 s⁻¹,B25
15,0.0064 s⁻¹,B11

# Target: T1, monovalent hVISTA-ECD (amino acids …)
# Test: SPR, mAb captured on Protein A, hVISTA-ECD analyte, 37 C, pH 7.4
# Description: as §1, §2
row,koff,Binder
1,0.0035 s⁻¹,B13
2,0.0035 s⁻¹,B14
3,0.0025 s⁻¹,B15
4,0.0027 s⁻¹,B16
5,0.0032 s⁻¹,B17
6,0.0019 s⁻¹,B18
7,0.0055 s⁻¹,B19
8,0.0017 s⁻¹,B21
9,0.003 s⁻¹,B22
10,0.0013 s⁻¹,B23
11,0.0023 s⁻¹,B25

# Target: T1, monovalent hVISTA-ECD (amino acids …)
# Test: SPR, mAb captured on Protein A, hVISTA-ECD analyte, 37 C, pH 6.0
# Remark: another data set of the same source
# Description: as §1, §2
row,koff,Binder
1,0.0062 s⁻¹,B12
2,0.00071 s⁻¹,B13
3,0.0074 s⁻¹,B26
4,0.034 s⁻¹,B27
5,0.00033 s⁻¹,B14
6,0.021 s⁻¹,B28
7,0.00041 s⁻¹,B15
8,0.00057 s⁻¹,B16
9,0.0007 s⁻¹,B17
10,0.0011 s⁻¹,B18
11,0.00092 s⁻¹,B19
12,0.0056 s⁻¹,B20
13,0.00018 s⁻¹,B21
14,0.0055 s⁻¹,B29
15,0.00038 s⁻¹,B22
16,0.0081 s⁻¹,B30
17,0.00013 s⁻¹,B23
18,0.0052 s⁻¹,B24
19,0.00021 s⁻¹,B25
20,0.0017 s⁻¹,B11
